Consider 2 substances from US8414892.

For assay [1], the target named is HLA class I (HLA A, B, C) (human). The assay is described as follows: indirect immunofluorescence, U2OS cells recultured at 37 C after antibody binding.
Assay [2] shares this target. The assay is described as follows: indirect immunofluorescence, U2OS cells.
Assay [3] has the same target. The assay is described as follows: indirect immunofluorescence.
The target in assay [4] is monoclonal antibody 8H9. Put plainly: FACS inhibition, 5 ug/ml 8H9 on HTB-82 cells.
Sequence of monoclonal antibody 8H9 (VH, as listed by the source limits assumed, chain 1 of 2): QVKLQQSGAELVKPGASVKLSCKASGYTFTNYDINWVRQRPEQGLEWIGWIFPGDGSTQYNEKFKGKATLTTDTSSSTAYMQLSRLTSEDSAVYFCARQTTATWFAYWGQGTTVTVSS
Sequence of monoclonal antibody 8H9 (VL, as listed by the source limits assumed, chain 2 of 2): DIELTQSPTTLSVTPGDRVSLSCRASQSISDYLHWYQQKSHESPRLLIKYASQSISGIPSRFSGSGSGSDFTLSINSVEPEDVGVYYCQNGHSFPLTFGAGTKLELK
In assay [5] the target is monoclonal antibody 8H9. Put plainly: ELISA, MoAb coated; ++ = OD 1~2.
Assay [6] addresses monoclonal antibody 8H9. Put plainly: FACS inhibition, 5 ug/ml 8H9 on LAN-1 cells.
For assay [7], the target named is 8H9 scFv-human gamma1-CH2-CH3 chimeric antibody (human). The assay is described as follows: FACS inhibition, 5 ug/ml 8H9-scFv-Fc on HTB82 cells.
A further assay deals with UJ 13A. The assay is described as follows: ELISA, MoAb coated. In general terms: In an ELISA, binding on a coated surface is turned into a signal by an enzyme label.
In a further assay the target is MoAb R24. The assay is described as follows: ELISA, MoAb coated.
Another assay addresses MOPC 21. Put plainly: ELISA, MoAb coated.
Another assay has as its target HOPC-1. The assay is described as follows: ELISA, MoAb coated.
Another assay deals with MOPC 104E. Put plainly: ELISA, MoAb coated.
A further assay concerns the target MoAb 3F8. Put plainly: ELISA, MoAb coated.
A further assay has as its target MOPC 315. Put plainly: ELISA, MoAb coated.
For another assay, the target named is FCOPC21. Put plainly: ELISA, MoAb coated.
Another assay has as its target TIB114. Put plainly: ELISA, MoAb coated.

Bounds are passed on as bounds.

Substance anti-HLA A, B, C antibody HB-95 registered a relative immunofluorescence remaining after 48 h in assay [1] of 11%. Moreover, the loss of binding after 48 h at 37 C worked out at 89% in assay [2] and 85% in assay [3].
On to “rat anti-8H9 anti-idiotypic monoclonal antibody 2E9”, for which the concentration of 2E9 giving complete inhibition of 8H9 staining in the assay with monoclonal antibody 8H9 [4] came out at 10 µg/mL. Also, the concentration of 2E9 without inhibition of 8H9 staining in the assay with monoclonal antibody 8H9 [4] and in the assay with monoclonal antibody 8H9 [6] was 2 µg/mL throughout. The OD with monoclonal antibody 8H9 [5] was 1 to 2 od; with UJ 13A, below 0.5 od; in the assay with MoAb R24, below 0.5 od; with MOPC 21, below 0.5 od; with HOPC-1 it was below 0.5 od; in the assay with MOPC 104E it was below 0.5 od. For the same substance, the OD with MoAb 3F8, with MOPC 315, with FCOPC21 and with TIB114 was below 0.5 od in each case. The same substance had a concentration of 2E9 giving almost complete inhibition of 8H9 staining with monoclonal antibody 8H9 [6] of 10 µg/mL. In assay [7], this substance showed a concentration of 2E9 giving complete inhibition of 8H9-scFv-Fc staining of 1 µg/mL.
